Laboratory results taken from the Human Domainome abundance scans (Beltran et al. 2025).
± gives the uncertainty stated by the source.

B1: Retinoic acid receptor RXR-alpha, residues 132 to 208; numbered along this chain, P19793 (parent)
chain: KHICAICGDRSSGKHYGVYSCEGCKGFFKRTVRKDLTYTCRDNKDCLIDKRQRNRCQYCRYQKCLAMGMKREAVQEE

Variants of: B1
Test: abundance fitness (aPCA) (normalised: wild type 0, dead -1); higher = more abundant; growth selection in yeast, the domain comes from the species named
Settings: Homo sapiens

Variant	abundance fitness
KHICAYCGDRSSGKHYGVYSCEGCKGFFKRTVRKDLTYTCRDNKDCLIDKRQRNRCQYCRYQKCLAMGMKREAVQEE	-0.881 ± 0.085
KHICATCGDRSSGKHYGVYSCEGCKGFFKRTVRKDLTYTCRDNKDCLIDKRQRNRCQYCRYQKCLAMGMKREAVQEE	-0.064 ± 0.033
KHICALCGDRSSGKHYGVYSCEGCKGFFKRTVRKDLTYTCRDNKDCLIDKRQRNRCQYCRYQKCLAMGMKREAVQEE	-0.124 ± 0.03
KHICASCGDRSSGKHYGVYSCEGCKGFFKRTVRKDLTYTCRDNKDCLIDKRQRNRCQYCRYQKCLAMGMKREAVQEE	-0.438 ± 0.036
KHICAGCGDRSSGKHYGVYSCEGCKGFFKRTVRKDLTYTCRDNKDCLIDKRQRNRCQYCRYQKCLAMGMKREAVQEE	-0.386 ± 0.068
KHICANCGDRSSGKHYGVYSCEGCKGFFKRTVRKDLTYTCRDNKDCLIDKRQRNRCQYCRYQKCLAMGMKREAVQEE	-0.439 ± 0.048
KHICACCGDRSSGKHYGVYSCEGCKGFFKRTVRKDLTYTCRDNKDCLIDKRQRNRCQYCRYQKCLAMGMKREAVQEE	0.008 ± 0.048
KHICAACGDRSSGKHYGVYSCEGCKGFFKRTVRKDLTYTCRDNKDCLIDKRQRNRCQYCRYQKCLAMGMKREAVQEE	-0.145 ± 0.038
KHICAMCGDRSSGKHYGVYSCEGCKGFFKRTVRKDLTYTCRDNKDCLIDKRQRNRCQYCRYQKCLAMGMKREAVQEE	-0.038 ± 0.039
KHICARCGDRSSGKHYGVYSCEGCKGFFKRTVRKDLTYTCRDNKDCLIDKRQRNRCQYCRYQKCLAMGMKREAVQEE	-0.687 ± 0.065
KHICAKCGDRSSGKHYGVYSCEGCKGFFKRTVRKDLTYTCRDNKDCLIDKRQRNRCQYCRYQKCLAMGMKREAVQEE	-0.881 ± 0.098
KHICAHCGDRSSGKHYGVYSCEGCKGFFKRTVRKDLTYTCRDNKDCLIDKRQRNRCQYCRYQKCLAMGMKREAVQEE	-0.731 ± 0.072
KHICAQCGDRSSGKHYGVYSCEGCKGFFKRTVRKDLTYTCRDNKDCLIDKRQRNRCQYCRYQKCLAMGMKREAVQEE	-0.909 ± 0.11
KHICADCGDRSSGKHYGVYSCEGCKGFFKRTVRKDLTYTCRDNKDCLIDKRQRNRCQYCRYQKCLAMGMKREAVQEE	-0.729 ± 0.097
KHICAICADRSSGKHYGVYSCEGCKGFFKRTVRKDLTYTCRDNKDCLIDKRQRNRCQYCRYQKCLAMGMKREAVQEE	-0.027 ± 0.037
KHICAICEDRSSGKHYGVYSCEGCKGFFKRTVRKDLTYTCRDNKDCLIDKRQRNRCQYCRYQKCLAMGMKREAVQEE	0.005 ± 0.069
KHICAICWDRSSGKHYGVYSCEGCKGFFKRTVRKDLTYTCRDNKDCLIDKRQRNRCQYCRYQKCLAMGMKREAVQEE	-0.1 ± 0.06
KHICAICLDRSSGKHYGVYSCEGCKGFFKRTVRKDLTYTCRDNKDCLIDKRQRNRCQYCRYQKCLAMGMKREAVQEE	-0.179 ± 0.03
KHICAICRDRSSGKHYGVYSCEGCKGFFKRTVRKDLTYTCRDNKDCLIDKRQRNRCQYCRYQKCLAMGMKREAVQEE	-0.125 ± 0.033
KHICAICQDRSSGKHYGVYSCEGCKGFFKRTVRKDLTYTCRDNKDCLIDKRQRNRCQYCRYQKCLAMGMKREAVQEE	0.043 ± 0.045
KHICAICFDRSSGKHYGVYSCEGCKGFFKRTVRKDLTYTCRDNKDCLIDKRQRNRCQYCRYQKCLAMGMKREAVQEE	0.006 ± 0.036
KHICAICNDRSSGKHYGVYSCEGCKGFFKRTVRKDLTYTCRDNKDCLIDKRQRNRCQYCRYQKCLAMGMKREAVQEE	-0.017 ± 0.035
KHICAICVDRSSGKHYGVYSCEGCKGFFKRTVRKDLTYTCRDNKDCLIDKRQRNRCQYCRYQKCLAMGMKREAVQEE	-0.228 ± 0.034
KHICAICYDRSSGKHYGVYSCEGCKGFFKRTVRKDLTYTCRDNKDCLIDKRQRNRCQYCRYQKCLAMGMKREAVQEE	-0.044 ± 0.043

Variant	abundance fitness
KHICAICMDRSSGKHYGVYSCEGCKGFFKRTVRKDLTYTCRDNKDCLIDKRQRNRCQYCRYQKCLAMGMKREAVQEE	-0.07 ± 0.041
KHICAICSDRSSGKHYGVYSCEGCKGFFKRTVRKDLTYTCRDNKDCLIDKRQRNRCQYCRYQKCLAMGMKREAVQEE	-0.041 ± 0.03
KHICAICPDRSSGKHYGVYSCEGCKGFFKRTVRKDLTYTCRDNKDCLIDKRQRNRCQYCRYQKCLAMGMKREAVQEE	-0.227 ± 0.036
KHICAICKDRSSGKHYGVYSCEGCKGFFKRTVRKDLTYTCRDNKDCLIDKRQRNRCQYCRYQKCLAMGMKREAVQEE	-0.053 ± 0.05
KHICAICDDRSSGKHYGVYSCEGCKGFFKRTVRKDLTYTCRDNKDCLIDKRQRNRCQYCRYQKCLAMGMKREAVQEE	-0.04 ± 0.039
KHICAICTDRSSGKHYGVYSCEGCKGFFKRTVRKDLTYTCRDNKDCLIDKRQRNRCQYCRYQKCLAMGMKREAVQEE	0.016 ± 0.035
KHICAICHDRSSGKHYGVYSCEGCKGFFKRTVRKDLTYTCRDNKDCLIDKRQRNRCQYCRYQKCLAMGMKREAVQEE	-0.062 ± 0.037
KHICAICCDRSSGKHYGVYSCEGCKGFFKRTVRKDLTYTCRDNKDCLIDKRQRNRCQYCRYQKCLAMGMKREAVQEE	-0.027 ± 0.045
KHICAIEGDRSSGKHYGVYSCEGCKGFFKRTVRKDLTYTCRDNKDCLIDKRQRNRCQYCRYQKCLAMGMKREAVQEE	-0.769 ± 0.13
KHICAILGDRSSGKHYGVYSCEGCKGFFKRTVRKDLTYTCRDNKDCLIDKRQRNRCQYCRYQKCLAMGMKREAVQEE	-1.23 ± 0.12
KHICAIHGDRSSGKHYGVYSCEGCKGFFKRTVRKDLTYTCRDNKDCLIDKRQRNRCQYCRYQKCLAMGMKREAVQEE	-0.942 ± 0.1
KHICAIMGDRSSGKHYGVYSCEGCKGFFKRTVRKDLTYTCRDNKDCLIDKRQRNRCQYCRYQKCLAMGMKREAVQEE	-0.867 ± 0.14
KHICAIYGDRSSGKHYGVYSCEGCKGFFKRTVRKDLTYTCRDNKDCLIDKRQRNRCQYCRYQKCLAMGMKREAVQEE	-0.917 ± 0.08
KHICAIGGDRSSGKHYGVYSCEGCKGFFKRTVRKDLTYTCRDNKDCLIDKRQRNRCQYCRYQKCLAMGMKREAVQEE	-0.921 ± 0.1
KHICAIIGDRSSGKHYGVYSCEGCKGFFKRTVRKDLTYTCRDNKDCLIDKRQRNRCQYCRYQKCLAMGMKREAVQEE	-1.24 ± 0.16
KHICAITGDRSSGKHYGVYSCEGCKGFFKRTVRKDLTYTCRDNKDCLIDKRQRNRCQYCRYQKCLAMGMKREAVQEE	-0.981 ± 0.083
KHICAIFGDRSSGKHYGVYSCEGCKGFFKRTVRKDLTYTCRDNKDCLIDKRQRNRCQYCRYQKCLAMGMKREAVQEE	-1.19 ± 0.14
KHICAIQGDRSSGKHYGVYSCEGCKGFFKRTVRKDLTYTCRDNKDCLIDKRQRNRCQYCRYQKCLAMGMKREAVQEE	-0.988 ± 0.15
KHICAIPGDRSSGKHYGVYSCEGCKGFFKRTVRKDLTYTCRDNKDCLIDKRQRNRCQYCRYQKCLAMGMKREAVQEE	-0.961 ± 0.093
KHICAISGDRSSGKHYGVYSCEGCKGFFKRTVRKDLTYTCRDNKDCLIDKRQRNRCQYCRYQKCLAMGMKREAVQEE	-0.944 ± 0.067
KHICAIVGDRSSGKHYGVYSCEGCKGFFKRTVRKDLTYTCRDNKDCLIDKRQRNRCQYCRYQKCLAMGMKREAVQEE	-1.11 ± 0.14
KHICAIAGDRSSGKHYGVYSCEGCKGFFKRTVRKDLTYTCRDNKDCLIDKRQRNRCQYCRYQKCLAMGMKREAVQEE	-0.919 ± 0.11
KHICAIDGDRSSGKHYGVYSCEGCKGFFKRTVRKDLTYTCRDNKDCLIDKRQRNRCQYCRYQKCLAMGMKREAVQEE	-0.357 ± 0.053
KHICAIKGDRSSGKHYGVYSCEGCKGFFKRTVRKDLTYTCRDNKDCLIDKRQRNRCQYCRYQKCLAMGMKREAVQEE	-1.29 ± 0.22

Variant	abundance fitness
KHICAINGDRSSGKHYGVYSCEGCKGFFKRTVRKDLTYTCRDNKDCLIDKRQRNRCQYCRYQKCLAMGMKREAVQEE	-0.728 ± 0.07
KHICAIWGDRSSGKHYGVYSCEGCKGFFKRTVRKDLTYTCRDNKDCLIDKRQRNRCQYCRYQKCLAMGMKREAVQEE	-1.22 ± 0.23
KHICTICGDRSSGKHYGVYSCEGCKGFFKRTVRKDLTYTCRDNKDCLIDKRQRNRCQYCRYQKCLAMGMKREAVQEE	0.045 ± 0.049
KHICVICGDRSSGKHYGVYSCEGCKGFFKRTVRKDLTYTCRDNKDCLIDKRQRNRCQYCRYQKCLAMGMKREAVQEE	-0.054 ± 0.033
KHICRICGDRSSGKHYGVYSCEGCKGFFKRTVRKDLTYTCRDNKDCLIDKRQRNRCQYCRYQKCLAMGMKREAVQEE	0.044 ± 0.032
KHICWICGDRSSGKHYGVYSCEGCKGFFKRTVRKDLTYTCRDNKDCLIDKRQRNRCQYCRYQKCLAMGMKREAVQEE	0.03 ± 0.042
KHICPICGDRSSGKHYGVYSCEGCKGFFKRTVRKDLTYTCRDNKDCLIDKRQRNRCQYCRYQKCLAMGMKREAVQEE	-0.074 ± 0.052
KHICQICGDRSSGKHYGVYSCEGCKGFFKRTVRKDLTYTCRDNKDCLIDKRQRNRCQYCRYQKCLAMGMKREAVQEE	0.036 ± 0.046
KHICNICGDRSSGKHYGVYSCEGCKGFFKRTVRKDLTYTCRDNKDCLIDKRQRNRCQYCRYQKCLAMGMKREAVQEE	-0.022 ± 0.055
KHICMICGDRSSGKHYGVYSCEGCKGFFKRTVRKDLTYTCRDNKDCLIDKRQRNRCQYCRYQKCLAMGMKREAVQEE	0.036 ± 0.048
KHICLICGDRSSGKHYGVYSCEGCKGFFKRTVRKDLTYTCRDNKDCLIDKRQRNRCQYCRYQKCLAMGMKREAVQEE	0.037 ± 0.037
KHICIICGDRSSGKHYGVYSCEGCKGFFKRTVRKDLTYTCRDNKDCLIDKRQRNRCQYCRYQKCLAMGMKREAVQEE	0.055 ± 0.084
KHICDICGDRSSGKHYGVYSCEGCKGFFKRTVRKDLTYTCRDNKDCLIDKRQRNRCQYCRYQKCLAMGMKREAVQEE	0.016 ± 0.044
KHICSICGDRSSGKHYGVYSCEGCKGFFKRTVRKDLTYTCRDNKDCLIDKRQRNRCQYCRYQKCLAMGMKREAVQEE	0.02 ± 0.036
KHICGICGDRSSGKHYGVYSCEGCKGFFKRTVRKDLTYTCRDNKDCLIDKRQRNRCQYCRYQKCLAMGMKREAVQEE	-0.045 ± 0.027
KHICHICGDRSSGKHYGVYSCEGCKGFFKRTVRKDLTYTCRDNKDCLIDKRQRNRCQYCRYQKCLAMGMKREAVQEE	0.044 ± 0.063
KHICEICGDRSSGKHYGVYSCEGCKGFFKRTVRKDLTYTCRDNKDCLIDKRQRNRCQYCRYQKCLAMGMKREAVQEE	0.04 ± 0.036
KHICFICGDRSSGKHYGVYSCEGCKGFFKRTVRKDLTYTCRDNKDCLIDKRQRNRCQYCRYQKCLAMGMKREAVQEE	0.171 ± 0.065
KHICAICGGRSSGKHYGVYSCEGCKGFFKRTVRKDLTYTCRDNKDCLIDKRQRNRCQYCRYQKCLAMGMKREAVQEE	-0.166 ± 0.039
KHICAICGERSSGKHYGVYSCEGCKGFFKRTVRKDLTYTCRDNKDCLIDKRQRNRCQYCRYQKCLAMGMKREAVQEE	0.098 ± 0.055
KHICAICGFRSSGKHYGVYSCEGCKGFFKRTVRKDLTYTCRDNKDCLIDKRQRNRCQYCRYQKCLAMGMKREAVQEE	-0.321 ± 0.036
KHICAICGARSSGKHYGVYSCEGCKGFFKRTVRKDLTYTCRDNKDCLIDKRQRNRCQYCRYQKCLAMGMKREAVQEE	-0.091 ± 0.037
KHICAICGCRSSGKHYGVYSCEGCKGFFKRTVRKDLTYTCRDNKDCLIDKRQRNRCQYCRYQKCLAMGMKREAVQEE	-0.898 ± 0.083
